Our source for the Kd values is US20190224333A1 (published 2019).

The target in the assay is T1, fibrin (human, UniProt P02671 36-629; P02675 45-491; P02679 27-437, limits assumed).
T1 construct: Thin polymerised fibrin layer made by layer-by-layer deposition of fibrinogen-thrombin-fibrinogen on ELISA plates, SPR chips and interferometry sensors; Human is stated for the purified fibrinogen used in biopanning; also called fibrin layer; fibrin clot
T1 sequence (looked up) 1: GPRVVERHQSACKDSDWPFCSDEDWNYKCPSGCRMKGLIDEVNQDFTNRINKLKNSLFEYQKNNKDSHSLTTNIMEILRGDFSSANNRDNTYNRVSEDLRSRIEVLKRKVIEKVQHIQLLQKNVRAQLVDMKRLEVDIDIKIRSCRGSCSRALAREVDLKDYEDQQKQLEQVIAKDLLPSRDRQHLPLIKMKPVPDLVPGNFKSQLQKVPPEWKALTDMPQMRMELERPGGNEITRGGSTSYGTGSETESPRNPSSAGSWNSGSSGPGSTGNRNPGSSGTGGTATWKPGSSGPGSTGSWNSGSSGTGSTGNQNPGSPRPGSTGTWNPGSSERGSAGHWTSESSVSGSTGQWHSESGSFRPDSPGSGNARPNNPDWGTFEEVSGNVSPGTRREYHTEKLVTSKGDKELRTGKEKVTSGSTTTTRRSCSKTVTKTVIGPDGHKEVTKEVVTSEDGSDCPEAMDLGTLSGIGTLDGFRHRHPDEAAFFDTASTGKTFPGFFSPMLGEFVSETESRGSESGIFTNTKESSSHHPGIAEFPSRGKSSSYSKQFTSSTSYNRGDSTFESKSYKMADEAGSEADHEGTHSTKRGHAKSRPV
T1 sequence (looked up) 2: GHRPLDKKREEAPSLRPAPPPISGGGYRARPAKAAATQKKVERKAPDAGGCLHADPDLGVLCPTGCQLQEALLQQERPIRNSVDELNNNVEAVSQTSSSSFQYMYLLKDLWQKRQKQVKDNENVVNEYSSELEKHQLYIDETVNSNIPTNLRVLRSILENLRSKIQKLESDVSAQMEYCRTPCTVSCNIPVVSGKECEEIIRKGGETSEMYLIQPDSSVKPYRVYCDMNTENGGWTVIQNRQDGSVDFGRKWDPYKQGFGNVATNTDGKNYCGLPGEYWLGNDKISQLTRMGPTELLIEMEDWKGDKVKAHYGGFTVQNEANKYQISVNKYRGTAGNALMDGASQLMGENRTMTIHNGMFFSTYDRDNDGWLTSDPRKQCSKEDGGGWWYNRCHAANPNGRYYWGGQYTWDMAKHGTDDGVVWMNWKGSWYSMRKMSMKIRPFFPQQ
T1 sequence (looked up) 3: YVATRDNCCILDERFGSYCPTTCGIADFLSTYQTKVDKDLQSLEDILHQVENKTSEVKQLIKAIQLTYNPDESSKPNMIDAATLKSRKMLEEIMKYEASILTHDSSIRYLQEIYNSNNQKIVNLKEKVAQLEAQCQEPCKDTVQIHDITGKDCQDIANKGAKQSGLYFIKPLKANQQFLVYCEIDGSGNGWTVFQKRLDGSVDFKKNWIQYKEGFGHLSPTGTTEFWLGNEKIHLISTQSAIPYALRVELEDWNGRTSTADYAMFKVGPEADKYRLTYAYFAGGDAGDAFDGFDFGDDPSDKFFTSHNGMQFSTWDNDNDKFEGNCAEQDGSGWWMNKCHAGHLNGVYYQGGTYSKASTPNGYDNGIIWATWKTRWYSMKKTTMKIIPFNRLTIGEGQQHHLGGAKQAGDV
The experiment in a line: SPR, sdFv flowed over immobilised fibrin layer, 1:1 Langmuir fit. The method, then:
Based on previous SPR protocols developed in the lab⁴, a thin fibrin layer was immobilized on the surface of a gold SPR chip via layer-by-layer deposition of fibrinogen-thrombin-fibrinogen³. SdFvs were flowed across the fibrin surface and the binding interactions were evaluated and recorded. Additionally, antibody fragment binding interactions with a surface of immobilized fibrinogen was used to investigate the specificity to fibrin. All SPR data was examined and analyzed with Scrubber 2 and Clamp XP (Center for Biomolecular Interactions Analysis, University of Utah). Data simulation curves were generated based on a Langmuir 1:1 binding model assuming only a single ligand-analyte interaction.
The four most promising clones, based on their selectivity for fibrin over fibrinogen (clones A2, A6, B3 and H6) and a random clone (S11) were then evaluated through SPR analysis (FIGS. 2B-2K). […] Clones H6 and S11 (negative control) were subsequently utilized for creation of PLPs. Interferometry analysis verified that sdFv-microgels maintained their fibrin-binding capabilities (FIG. 3).

Broadly, the Kd is the equilibrium constant for the complex coming apart.

B1: H6 (VHH)
VHH: QVQLLESGGGLVQPGGSLRLSCAASGDRFTHNDMGWVRQAPGKGLEWVSTIPTTDGSTYYADSVKGRFTISRDNSKSTLYLQMNSLRAEDTAVYYCATGYMWKAPAYVKYWGQGTLVTVSS
notes: Human-derived single domain variable fragment (sdFv, VH only) from a phagemid library; Made as soluble sdFv in E. coli HB2151 and purified on protein A; also called clone H6; fibrin-specific sdFv
The molecule B1 returned a dissociation constant (Kd) of 199 nM.
